Test: soluble on expression in E. coli; label from the status in PepcDB or PDB records

| Sequence | soluble on expression in E. coli |
| --- | --- |
| MFQAQHLTKSFGDLVLFEDLSFSIERGEKVGLIARNGNGKTTLMNILTGIDSPDSGEVIYQNGIRRAYLPQLPQVLPGSTVLETCFGHNDEMTSLIAQWEEASARGDGKRMEELLPEMDALGAWEYEQRAREILTRLHLDDLHCTTDNLSGGELKRIALAGTLIGNPELLFLDEPTNHLDLDVIEWLEGYLSHQQIGLLLVTHDRYFLDRVCNRILELDNKQLYAYKGNYEYYLNKREERLEATERETSRAANLLRREAEWMHRRPQARGTKAKSRIDAFYELKEKAQPRHRDETLHLSEQGRYIGNKIFEAHKVCKAFGDRTILSDFDYIFSRYDKVGIVGPNGVGKTTFLRLLLGEEKPDSGYFDVGETVRFGYYSQKGMQFDENKRVIEAVQDIAEVIRNEKDGTTLSASALLTQFLFPPEKQYTPIHKLSGGEQRRLYLCTVLMKNPNFLILDEPTNDLDILTLNVLENYLSEFKGCVLVVSHDRFFMDKVVNHLFTFEGNGIVKDFPGNYTQYREYKQQEEAERQTVESSPSTRKAESEKPRTDAAERPRKLTFKEKQELERLEAELPKLEKEKAELESRMSSGTMATDELLTAGDRIAALIEEIDSKGMRWLELSDI | not soluble |
| MRLVLSSLIVIAGLLSSQATAATAPEQTASADIRDSGFVYCVSGQVNTFNPQKASSGLIVDTLAAQLYDRLLDVDPYTYRLVPELAESWEVLDNGATYRFHLRRDVSFQKTAWFTPTRKLNADDVVFTFQRIFDRRHPWHNINGSSFPYFDSLQFADNVKSVRKLDNNTVEFRLTQPDASFLWHLATHYASVMSAEYAAQLSRKDRQELLDRQPVGTGPFQLSEYRAGQFIRLQRHDGFWRGKPLMPQVVVDLGSGGTGRLSKLLTGECDVLAWPAASQLTILRDDPRLRLTLRPGMNIAYLAFNTDKPPLNNPAVRHALALSINNQRLMQSIYYGTAETAASILPRASWAYDNDAKITEYNPQKSREQLKALGIENLTLHLWVPTSSQAWNPSPLKTAELIQADMAQVGVKVVIVPVEGRFQEARLMDMNHDLTLSGWATDSNDPDSFFRPLLSCAAINSQTNFAHWCNPEFDSVLRKALSSQQLASRIEAYEEAQNILEKELPILPLASSLRLQAYRYDIKGLVLSPFGNASFAGVSREKHEEVKKP | not soluble |
| MGSDKIHHHHHHMNETSSYTIEEVAGLLKVSKLTVYDLIKKGVLPAYRVGRQMRVDEEDLKQYKTNMRMSQPIAAKEAPKQVQEAEPDGRPNVMISGQDISMDILSKHLENAIQETPLRKYKGSLNSLIDMYQGKCDIVSLHLYDAETGQYNAPYVKRILTGEPFCLINVVLRKAGLYVQKGNPKNIQGWKDLKRADIRIINREKGSGARVLLDEQLGLLGVNPADVVGYGDIVTDHYAAASQVSSGQADAGIGAQHAAHMGSVDFIPLIDEQYDIVVLKKNEQLLKAVKEILNSEDYKANLSHLNGYETKLTGKVILET | not soluble |
| MRLERVLEEARAKGYPIEDNGLGNLWVVLPRERFKEEMAHYKAMGFNFLADIVGLDYLTYPDPRPERFAVVYELVSLPGWKDGDGSRFFVRVYVPEEDPRLPTVTDLWGSANFLEREVYDLFGIVFEGHPDLRKILTPEDLEGHPLRKDYPLGETPTLFREGRYIIPAEFRAALTGKDPGLTFYKGGSRKGYRSLWADLKKAREVKG | soluble |
| MMEDNKMTESEMKFRDTTIRNFFDKEDRLKSIPGQKKKKLVLLEHLISKLNAENQYTEKEINTFIKQYHDDFCTIRREFIVQGFMNREDNMYCINGREVWTKWEELK | not soluble |
| MKVTAMDIYKLLPKTNCGKCGEASCMAFAAKLSQKEAELSACPQLKGADFEKLANMLAPAVREIKIGTGDRAVTIGGDEVLYRYELTYYNPTAVAVDLSDDMDDSAFDQKLVKIKNLEFERTGEILKLNAVALRNKSGDAEKFKKAAEKLKDSEIPVILCSFDPKAMDAALDVIGSKRPLIYAATENNIDEMSELALKHNCPISLFVPNDLEKMKQLSRKLRESGVKDIVLDPGTYIGEAIGDTMDNFIMIRRLAVEEKDDDFRFPILAVPAVCWINPEEDEILTKMKEATTAAALMNRYADVMILHGVDIWEMMPVLTLRQSLYTDPRKPQSVEAKIYEFGTVDENSPVIMTTNFALTYYTVAGDLKSGKVNCYLLVLDTNGKAVDVAVAGGQFNGKAAAELMKETGIEKLVNHKKLIIPGLAASVSGDIEDQSGWEVIVGTRDSSEVPAFLAKIW | not soluble |
| MGSDKIHHHHHHMKRIDLNGFWSVRDNEGRFSFEGTVPGVVQADLVRKGLLPHPYVGMNEDLFKEIEDREWIYEREFEFKEDVKEGERVDLVFEGVDTLSDVYLNGVYLGSTEDMFIEYRFDVTNVLKEKNHLKVYIKSPIRVPKTLEQNYGVLGGPEDPIRGYIRKAQYSYGWDWGARIVTSGIWKPVYLEVYRARLQDSTAYLLELEGKDALVRVNGFVHGEGNLIVEVYVNGEKIGEFPVLEKNGEKLFDGVFHLKDVKLWYPWNVGKPYLYDFVFVLKDLNGEIYREEKKIGLRRVRIVQEPDEEGKTFIFEINGEKVFAKGANWIPSENILTWLKEEDYEKLVKMARSANMNMLRVWGGGIYEREIFYRLCDELGIMVWQDFMYACLEYPDHLPWFRKLANEEARKIVRKLRYHPSIVLWCGNNENNWGFDEWGNMARKVDGINLGNRLYLFDFPEICAEEDPSTPYWPSSPYGGEKANSEKEGDRHVWYVWSGWMNYENYEKDTGRFISEFGFQGAPHPETIEFFSKPEEREIFHPVMLKHNKQVEGQERLIRFIFGNFGKCKDFDSFVYLSQLNQAEAIKFGVEHWRSRKYKTAGALFWQFNDSWPVFSWSAVDYFKRPKALYYYARRFFAEVLPVLKKRDNKIELLVVSDLRETKEVSLRLAAYEKKGEKVFEKTYRTVLPADGVSLVDRVELPDDLFFFVEAEVDGVKYRNYRVFRKWRDLELPDPEISLEDMGELIELTAQRPAFGVKILSDEVPEDDFLFLEPGRSITLKKPDGVRGVKSLFDYLR | not soluble |
| MGSDKIHHHHHHMSQDDLLSQEEIDALLKGVSGDEDNAQDERASREGKVRPFDPAKQHRIIRERLHALDIINERFARQFRVALFNLMRRSADITVESVRYQSYSEFSRNLPVPTNLNLITMKPLRGSALVVFPPSLVFMVVDNLFGGDGRFLTKSEGREFTRTEQRIIHRMLKMALEGYSESWKSVYPLDIEYTRSELQVKFANITNSPNEIVVNSTFHVEVGNLSSEFNICIPYSMIEPIRDILASPLHDTHPDEEQQWEARMAHEIRHSSVELTADFVDIPLRLRDVTQLSVGDIIPIELPEAVNVSVDGIPVMTCDYGSQKSQRALRVRHLIEHGSSQVAAKDPKDD | not soluble |
| AEEYGYIVTDQKPLSLAAGVKLLEILAEHVHMSSGSFINISVVGPALTFRIRHNEQNLSLADVTQQAGLVKSELEAQTGLQILQTGVGQRE | soluble |
| MSLSQPRYLSESKVAIKQSSDINGSNLNVGLLLGTGNPSSAEDALYLKEYISSPDMLGVLDKQLNFRQAFGQSGWDFFYHLSEGATREQFLNYYRDRISVVYDDKTGLLTLGTQGFSPEFAEAFNQAVLKESEKFINEISHRIAREQLQFAEDEMQAARVRLNRSKTELLTYQNSNNVLDPEAQALAATSLVNTLVSQRIQMEAELRNLLTYLRDDAPQVISAQNALKSLSTQIDNEKNKITAPDGHKLNRMAVDFEEIKAKVQFDGEIYKLTLTSIEKTRVDAARKLKVLSVISSPQLPEESAFPNREGHHHHHH | soluble |
| MTAQTHNDVAVCWNQNANQWTSDVRNGYDVYRDFFTLPAFLQFLPTMADLNVIDFGCGEGSNTRHFAQMGAKVVGIDISNGLIEHARQAERVDPVGITYKIVSYSSDTGFPASSFDAVVSTMALMDGPDLQGAMHEAYRLLRPGGFVAFSVLHPCFITPGWQWQKDENGQTTGLCTSRYFDKSGFTENWKFGNRPKDENVAPFAVPRFPRTIGDYINAVASVGFRISKIEEPQPTEEACKAIPQLRRWRDLGAFLLLVIAERPKLEHHHHHH | soluble |
| MTMGKRTQAPALEVRLLREGIIESKHIVQAVVCDERGRVLSVAGNSETATFVRSALKPFQALAVTTTGTLERYDLSDRDLAIITSSHKGTIEQVRQAFNILWRADLDPSVLQCPIPQGKRSPLEYNCSGKHAGMLAICQQRHWPLNNYMDRKHPVQQLVLAKVAELLRMPAAEFISAHDDCGVPTYLLQLGQISSLYALLAASNNLDMERIVRAMTHHPSMVAGEREFDTELMRLTPGELVSKSGAEGVQCIGRLGEGMGLTIKVMDGAKRAKYAVAIHLLQQMGWITPSVAESLAEKFMNPGKYTRLEVVGELSLLLEHHHHHH | not soluble |
| MADLFNKHLKKATNRTKEKLLEGIGKAKATQDEVFDQHAANLNKQSKSCEKLHKDVKNYSSALRTLLSAEKQLRDTIRDAYEPEWPDREHLTAIFDNLDIQTNELEKTVCDDLPQTVTQYVNQFPDLKKKIEKRGRKLVDYDSAKNSFNSVKASSKKDNDPKLAKATMELQAAEQMYTEMNNELLEILPAVFDSRITFFVDTLQTLFNANSVYQTDASKFHKQIVMQLDKLGESMDYLRVARPEARALTPIDTTSLASSDAPATPDQNKSDNSSLRQTPSPSVLPSPVPAPMAKPRESVVSMANSTNPFDDDDAEHDKEATPTDVEEKFEAKVYPKLNAQQTAAAEQAIAAAKREKKEASNPFDDEDDESTEVEEAPKKKDPEPTPKPLDGITNEKRKTLYFVTSTHNYKAVDTDELSFEQGVQIKVIEANEDDQLDDGWRLGELEDGKRGVFPENFTKKV | not soluble |
| MTDQQRRVVFMATSLLLDYPDDRWEDIIDAVSVQIDDLPKNTRQQFVQFLTAVRVMGRRGMEQHYVECFDQRRRCSLFLSYYAVGDTRQRGAAILAFQESLETLGFFLEREELPDHLCVVLEVAAKAEGLAHHVATDMLAAHRDGIEVLRVALEHSDSPYSRLVAAVCSALPDIDEETRKNFVDLIRSGPPAELIGIESPLPFPTATNV | not soluble |
| LVHLSVHNYAIVEHLDLELDRGMSVITGETGAGKSIMLDALGLTLGDRADSGVVRPGADKADILATFDLGDIPEAEAWLKERDLDNDGPCILRRVITAEGRSRSYINGSPCPQGDLKALGELLIDIHSQHEHQSLLKTDTHRRLLDEYAGATDLARQVHLAAQRWRQTRQELERL | not soluble |
| MIEAEEQQPCKTDFYSELPKVELHAHLNGSISSHTMKKLIAQKPDLKIHDQMTVIDKGKKRTLEECFQMFQTIHQLTSSPEDILMVTKDVIKEFADDGVKYLELRSTPRRENATGMTKKTYVESILEGIKQSKQENLDIDVRYLIAVDRRGGPLVAKETVKLAEEFFLSTEGTVLGLDLSGDPTVGQAKDFLEPLLEAKKAGLKLALHLSEIPNQKKETQILLDLLPDRIGHGTFLNSGEGGSLDLVDFVRQHRIPLGKAWSFRSSR | soluble |
| MAHHHHHHMTDVAEGHQSYANAFISEGDRTSAVRYLDLFLRLYEEYCDVAEVEANSRVLQAATVMQSNSHAPDLLSYVVSAAALGIGGTRALAPALASLPLKVLNLSECYLGDAGLRVLAETLSASSHSTGGLRVLELRGISASDGSSVALLVTALRSLQLLDVSSNRFGTRPPGFALLCAAMGYHPALREVHIADNMVSGCCESCVGAIAEWLVKASRACMLQHVDLRFNTLGLYRRGLYNTVVDGKEVQCTLYGFYPLVDALLLNNSIEVLEVGNNGFPPGVLDAIEAKLAVNKRTKKALQEYYTNHIDR | not soluble |
| MSLSTRVFPERPILVVDDERAALDGFEVALVSSGYTNIVTMDDSRKVLPFIAEHEAELILLDLIMPHVSGTELIEEIKRRRPEVPIIIITAVNDIDSVVECIRNGAQDYILKPVDKDHLRNRVQQALERRELERENRLLRASLLDGEIRHPEAFSDIVTQDQKMHAIFRYCEAVAPSTKPILITGETGTGKELVAQALHRLSGRKGEFVAVNIAAFDDPVFADTLFGHSRGAFTGADTPRAGLVEKAAGGTLFLDEIGDLPALSQVKLLRLLQEKEYFPVGSDNAKKANVRIVASTLKNLVDLRHRGLFRDDLYYRLTTHRIHIPPLRERPGDIPCLLDHFLELDAREQKRKPPSYHPELINLLRSYAFPGNIRELRGMISDAFMNHASHMLSSSSFRQYIMNEGHHHHHH | soluble |

From the DeepSol protein solubility set
